The results in this text go back to patent US6759239.

For this experiment, the target named is CD40 on APCs (CD2-depleted human PBMC) (human) (UniProt P25942). Put plainly: cell-based or functional assay.
Chain of UniProt P25942 (P25942 21-277): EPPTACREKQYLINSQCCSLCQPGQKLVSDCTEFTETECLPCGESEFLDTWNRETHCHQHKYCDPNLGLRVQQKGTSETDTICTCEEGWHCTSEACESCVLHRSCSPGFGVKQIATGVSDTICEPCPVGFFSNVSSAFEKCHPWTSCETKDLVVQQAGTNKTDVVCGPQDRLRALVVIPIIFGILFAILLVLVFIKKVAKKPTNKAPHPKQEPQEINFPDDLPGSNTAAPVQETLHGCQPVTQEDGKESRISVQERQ

As for mAb CD40 G28-5 (antibody), the % Positive APCs for CD40 after 48 h with CD40 mAb on CD32+ L cells plus IL-4 (APC alone: 99(231)) is 99%, the % Positive APCs for CD54 after 48 h with CD40 mAb on CD32+ L cells plus IL-4 (APC alone: 65(283)) amounted to 97%, the % Positive APCs for CD80 after 48 h with CD40 mAb on CD32+ L cells plus IL-4 (APC alone: 16(78)) turned out to be 31% and the % Positive APCs for CD86 after 48 h with CD40 mAb on CD32+ L cells plus IL-4 (APC alone: 30(310)) came to 63%. Also, where the note is “scale: MFI”, the MFI of CD40 on APCs after 48 h with CD40 mAb on CD32+ L cells plus IL-4 (APC alone: 99(231)) came to 430, the MFI of CD54 on APCs after 48 h with CD40 mAb on CD32+ L cells plus IL-4 (APC alone: 65(283)) was 443, the MFI of CD58 on APCs after 48 h with CD40 mAb on CD32+ L cells plus IL-4 (APC alone: 40(315)) was 458 and the MFI of CD80 on APCs after 48 h with CD40 mAb on CD32+ L cells plus IL-4 (APC alone: 16(78)) came to 109. Under “scale: MFI”, the MFI of CD86 on APCs after 48 h with CD40 mAb on CD32+ L cells plus IL-4 (APC alone: 30(310)) worked out at 464.
For the substance “CD40L constitutively expressed on the D1.1 Jurkat T cell line (from UniProt P29965 1-261) (ligand)”, the % Positive APCs for CD40 after 24 h with D1.1 cells (APC alone: 99(203)) came to 99%, the % Positive APCs for CD54 after 24 h with D1.1 cells (APC alone: 60(350)) was determined as 85%, the % Positive APCs for CD58 after 24 h with D1.1 cells (APC alone: 42(374)) came to 70% and the % Positive APCs for CD80 after 24 h with D1.1 cells (APC alone: 17(90)) is 41%. Further, the % Positive APCs for CD86 after 24 h with D1.1 cells (APC alone: 35(318)) came to 49%. Moreover, where the note is “scale: MFI”, the MFI of CD40 on APCs after 24 h with D1.1 cells (APC alone: 99(203)) was determined as 312, the MFI of CD54 on APCs after 24 h with D1.1 cells (APC alone: 60(350)) came to 358, the MFI of CD58 on APCs after 24 h with D1.1 cells (APC alone: 42(374)) came out at 380 and the MFI of CD80 on APCs after 24 h with D1.1 cells (APC alone: 17(90)) was found to be 141. The MFI of CD86 on APCs after 24 h with D1.1 cells (APC alone: 35(318)) (scale: MFI) is 327.
